Experiments:
HEK293 cells = assay type: in vitro ADME; conditions: 10 μM
Description: The peptide encoding FixR-cpp was chemically synthesized by Genscript (98% purity) to contain the cell permeating viral TAT sequence in the amino-terminus: […] (SEQ ID NO. 2). The amino terminus of the peptide contained a FITC fluorophore to visualize cell uptake. The peptide was resuspended in DMSO. Flow cytometric assays were performed to quantify FixR cellular uptake in both HEK293 cells and freshly dissociated aMVM. HEK293 cells were cultured in 12 well plates and incubated with different concentrations of FixR-cpp for 2 hours and stained for cell death detection using LIVE/DEAD™ Fixable Far Red Dead Cell Stain Kit (ThermoFisher Scientific, L10120). Similarly, non-TG and IQ/AA^tg freshly dissociated aMVM were incubated with various concentrations of FixR-cpp for 2 hours in Tyrode's solution (138 mM NaCl, 4 mM KCl, 1 mM MgCl2, 10 mM HEPES (pH 7.4 using NaOH), 0.2 mM NaHPO4 5 mM D-glucose, 1 mM CaCl2). For cellular uptake measurements, we utilized an LSR II (BD Biosciences) flow cytometer equipped with 405 nm, 488 nm, and 633 nm lasers for excitation and 18 different emission channels. Forward and side scatter signals were detected and used to gate for single and healthy cells. […] Histograms from the Fluorescein 5(6)-isothiocyanate (FITC) and Allophycocyanin (APC) channels for the single-cell population were obtained and analyzed using FlowJo (version X, FlowJo LLC).

[1] = biological target: T1, NaV1.5 S1904L mutant channel (Homo sapiens, UniProt Q14524, S1904L); experiment: Multichannel recordings of late Na current, NaV1.5 S1904L; assay type: cell-based; conditions: co-expression
T1 construct: expressed in transfected cells; host or cells: HEK293 (ATCC CRL1573)
Description: HEK293 cells (ATCC CRL1573) were cultured on glass coverslips in 60-mm dishes and transfected using the Ca^2+-phosphate method as previously described. For electrophysiology experiments, we co-transfected 4-8 μg of cDNA encoding the desired channel variant with 4 μg of YFP, and 1 μg of simian virus 40 T-antigen. […] The culture media was replaced following 4 h of transfection. Electrophysiology recordings were then performed at room temperature 1-2 days following transfection.
Multichannel records were obtained in the on-cell configuration with either HEK293 cells or in aMVM as in our previous study. The pipette contained (in mM): 140 NaCl; 10 HEPES; 0.5 CaCl2; at 300 mOsm, adjusted with tetraethylammonium methanesulfonate; and pH 7.4 adjusted with tetraethylammonium hydroxide. To zero membrane potential, the bath contained (in mM): 132 K^+-glutamate; 5 KCl; 5 NaCl; 3 MgCl; 2 EGTA; 10 glucose; 20HEPES; at 300 mOsm adjusted with glucose; and pH 7.4 adjusted with NaOH. Data were acquired at room temperature using the integrating mode of an Axopatch 200A amplifier (Axon Instruments, Molecular Devices). Patch pipettes (3-10 MΩ) were pulled from ultra-thick-walled borosilicate glass (BF200-116-10; Sutter Instruments) using horizontal puller (P-97, Sutter Instruments), fire polished with a microforge (Narishige), and coated with Sylgard™ brand silicone elastomer (Dow Corning). Elementary currents were low-pass filtered at 2 kHz with a four-pole Bessel filter and digitized at 200 kHz with an ITC-18 unit (Instrutech), controlled by custom MATLAB software (Mathworks). For each pulse, we obtained P/8 leak pulses. Leak subtraction was performed using an automated algorithm which fit the kinetics of the leak current or the capacitive transient with convex optimization with L1 regularization.

NaV1.5 E1784K = biological target: T2, NaV1.5 E1784K (Homo sapiens, UniProt Q14524, E1784K); experiment: Multichannel recordings of late Na current, NaV1.5 E1784K; assay type: cell-based; conditions: co-expression
T2 construct: expressed in transfected cells; host or cells: HEK293 (ATCC CRL1573)
From the text: The human NaV1.5 channel corresponds to clone M77235.1 (GenBank) and is subcloned into pGW 1 vector with HindIII and SaII. To facilitate construction of channelopathic mutations in the channel carboxy-terminus, we introduced silent mutations into NaV1.5 to introduce an NruI cutting site near the channel carboxy-terminus (5329-gtggccacg-5337 into 5329-gtCgcGacg-5337). Subsequently, we used overlap-extension PCR and ligated the PCR product into NaV1.5/pGW1 using NruI and XbaI restriction sites (mutations: E1784K, S1904L, IQ/AA, and Q1909R). For generating the ΔKPQ and IFM/IQM mutations, we used overlap-extension PCR and ligated in NaV1.5/pGW1 following restriction digest using KpnI and XbaI site. For generation of NaV1.5 truncations, we PCR amplified relevant segments using a forward primer upstream of the KpnI site and a reverse primer that truncated at the appropriate location (Δ1810 and Δ1885) and included an XbaI site and ligated into NaV1.5/pW1 vector. For LILA/WICW mutations, we used overlap extension and used restriction site AgeI and NheI for subsequent ligation. All segments subjected to PCR amplification were verified by sequencing. For generating human FHF2 splice-variants, we synthesized gene fragments and ligated into pcDNA3 using BamHI/EcoRI restriction sites. Human FHF1A and FHF1B were subcloned into ECFP-N3 vector, FHF2 splice variants and FHF3 were subcloned into pcDNA3. […]

| Substance | cells showing increased fluorescence compared to background (HEK293 cells; 2 hours of incubation, FITC-tagged) | enhancement in fluorescence intensity (HEK293 cells; 2 hours, flow-cytometry) | change in INa,L [1] | change in INa,L (NaV1.5 E1784K) |
| --- | --- | --- | --- | --- |
| FixR-cpp: FixR fused to HIV-1 TAT transduction domain, YGRKKRRQRRRAAAIASSLIRQKRQARESNSERVSASKRRSSPSKG (SEQ ID NO: 2) | ~90% | ~100 fold |  |  |
| FixR: minimal 39-amino-acid FHF1A amino-terminal effector domain, MAAAIASSLIRQKRQARESNSDRVSASKRRSSPSKDGRS (SEQ ID NO: 4), expressed as peptide |  |  | inhibits INa,L | inhibits INa,L |

— patent US20250049953A1, “TREATMENT AND METHOD FOR INHIBITING LATE NA CURRENT” (THE TRUSTEES OF COLUMBIA UNIVERSITY IN THE CITY OF NEW YORK, priority 2022, published 2025)
